In PMC12959773 (Protein & Cell, 2025):

B1: SLC7A11-SLC3A2 complex (Homo sapiens) (protein)
chain: MVRKPVVSTISKGGYLQGNVNGRLPSLGNKEPPGQEKVQLKRKVTLLRGVSIIIGTIIGAGIFISPKGVLQNTGSVGMSLTIWTVCGVLSLFGALSYAELGTTIKKSGGHYTYILEVFGPLPAFVRVWVELLIIRPAATAVISLAFGRYILEPFFIQCEIPELAIKLITAVGITVVMVLNSMSVSWSARIQIFLTFCKLTAILIIIVPGVMQLIKGQTQNFKDAFSGRDSSITRLPLAFYYGMYAYAGWFYLNFVTEEVENPEKTIPLAICISMAIVTIGYVLTNVAYFTTINAEELLLSNAVAVTFSERLLGNFSLAVPIFVALSCFGSMNGGVFAVSRLFYVASREGHLPEILSMIHVRKHTPLPAVIVLHPLTMIMLFSGDLDSLLNFLSFARWLFIGLAVAGLIYLRYKCPDMHRPFKVPLFIPALFSFTCLFMVALSLYSDPFSTGIGFVITLTGVPAYYLFIIWDKKPRWFRIMSEKITRTLQIILEVVPEEDKL
B2: SLC3A1 (natural protein, human)
chain: AEDKSKRDSIEMSMKGCQTNNGFVHNEDILEQTPDPGSSTDNLKHSTRGILGSQEPDFKGVQPYAGMPKEVLFQFSGQARYRIPREILFWLTVASVLVLIAATIAIIALSPKCLDWWQEGPMYQIYPRSFKDSNKDGNGDLKGIQDKLDYITALNIKTVWITSFYKSSLKDFRYGVEDFREVDPIFGTMEDFENLVAAIHDKGLKLIIDFIPNHTSDKHIWFQLSRTRTGKYTDYYIWHDCTHENGKTIPPNNWLSVYGNSSWHFDEVRNQCYFHQFMKEQPDLNFRNPDVQEEIKEILRFWLTKGVDGFSLDAVKFLLEAKHLRDEIQVNKTQIPDTVTQYSELYHDFTTTQVGMHDIVRSFRQTMDQYSTEPGRYRFMGTEAYAESIDRTVMYYGLPFIQEADFPFNNYLSMLDTVSGNSVYEVITSWMENMPEGKWPNWMIGGPDSSRLTSRLGNQYVNVMNMLLFTLPGTPITYYGEEIGMGNIVAANLNESYDINTLRSKSPMQWDNSSNAGFSEASNTWLPTNSDYHTVNVDVQKTQPRSALKLYQDLSLLHANELLLNRGWFCHLRNDSHYVVYTRELDGIDRIFIVVLNFGESTLLNLHNMISGLPAKMRIRLSTNSADKGSKVDTSGIFLDKGEGLIFEHNTKNLLHRQTAFRDRCFVSNRACYSSVLNILYTSC
modifications: five glycosylation sites in the extracellular domain
notes: SLC3A1 (rBAT), human; heavy chain subunit: small N-terminal cytoplasmic region, a single TM and a large extracellular domain; Two copies stand in the solved hetero-tetramer; also called rBAT; heavy chain of the SLC7A13-SLC3A1 cystine transporter
B3: SLC7A9-SLC3A1 complex (Homo sapiens) (protein)
chain: MGDTGLRKRREDEKSIQSQEPKTTSLQKELGLISGISIIVGTIIGSGIFVSPKSVLSNTEAVGPCLIIWAACGVLATLGALCFAELGTMITKSGGEYPYLMEAYGPIPAYLFSWASLIVIKPTSFAIICLSFSEYVCAPFYVGCKPPQIVVKCLAAAAILFISTVNSLSVRLGSYVQNIFTAAKLVIVAIIIISGLVLLAQGNTKNFDNSFEGAQLSVGAISLAFYNGLWAYDGWNQLNYITEELRNPYRNLPLAIIIGIPLVTACYILMNVSYFTVMTATELLQSQAVAVTFGDRVLYPASWIVPLFVAFSTIGAANGTCFTAGRLIYVAGREGHMLKVLSYISVRRLTPAPAIIFYGIIATIYIIPGDINSLVNYFSFAAWLFYGLTILGLIVMRFTRKELERPIKVPVVIPVLMTLISVFLVLAPIISKPTWEYLYCVLFILSGLLFYFLFVHYKFGWAQKISKPITMHLQMLMEVVPPEEDPE
B4: SLC7A13-SLC3A1 complex (Homo sapiens) (protein)
chain: MDRGEKIQLKRVFGYWWGTSFLLINIIGAGIFVSPKGVLAYSCMNVGVSLCVWAGCAILAMTSTLCSAEISISFPCSGAQYYFLKRYFGSTVAFLNLWTSLFLGSGVVAGQALLLAEYSIQPFFPSCSVPKLPKKCLALAMLWIVGILTSRGVKEVTWLQIASSVLKVSILSFISLTGVVFLIRGKKENVERFQNAFDAELPDISHLIQAIFQGYFAYSGGACFTLIAGELKKPRTTIPKCIFTALPLVTVVYLLVNISYLTVLTPREILSSDAVAITWADRAFPSLAWIMPFAISTSLFSNLLISIFKSSRPIYLASQEGQLPLLFNTLNSHSSPFTAVLLLVTLGSLAIILTSLIDLINYIFFTGSLWSILLMIGILRRRYQEPNLSIPYKVFLSFPLATIVIDVGLVVIPLVKSPNVHYVYVLLLVLSGLLFYIPLIHFKIRLAWFEKMTCYLQLLFNICLPDVSEE
notes: heterodimeric light/heavy chain transporter, dimer of heterodimers; ectopically expressed in HEK293T / HEK293 cells (Expi293 for cryo-EM); with Amino acid transporter heavy chain SLC3A1

Columns and labels:
[1] = substrate: N[C@@H](CSSC[C@H](N)C(=O)O)C(=O)O; assay: cells, lysate or membranes; conditions: cellular transport (Vmax given per cell)
[2] = target: the molecule itself; assay: cryo-EM structure; apo state; SLC7A13 and SLC3A1 co-expressed in Expi293 cells, complex purified by affinity purification and SEC; overall resolution 2.64 Å
[3] = substrate: N[C@@H](CSSC[C@H](N)C(=O)O)C(=O)O; assay: cells, lysate or membranes; type: cell-based, Homo sapiens; conditions: cellular transport (Vmax given per cell)

| Protein | Km [1] [µM] | other results |
| --- | --- | --- |
| B1 | 67.57 ± 21.95 | – |
| B2 | – | stoichiometry N [2]: 2 |
| B3 | 276.9 ± 107.6 | – |
| B4 | – | Km [3]: 126.5 ± 33.25 µM |
